From EP4471049A1 (Zealand Pharma A/S, priority 2023, dated 2024)
Where two headings read alike, the source gives them in different places. Blank lines part the entries; values can stand above or below the molecule they belong to. *1 amine or outer side, *2 acyl side, *3 side chain or, on linkers, in order; H or OH if unused. Where a SMILES comes first, the peptide text is derived from it. Bridges are numbered along the chain shown (N, C = ends). Primed or numbered codes have the meaning given here. [ ]: non-standard residue; d: D form. 4‑Aminomethyl‑phenylacetyl = 4-aminomethyl-phenylacetyl unit, its amine closes the lactam, O=C(Cc1ccc(CN[*:1])cc1)[*:2]; Q(pyrrolidin)″ = (2S)-2-amino-5-oxo-5-pyrrolidin-1-yl-pentanoic acid, O=C(CC[C@H](N[*:1])C(=O)[*:2])N1CCCC1; αMeAla(3-pyridyl) = C[C@](N)(Cc1cccnc1)C(=O)O; 2Nal = N[C@@H](Cc1ccc2ccccc2c1)C(=O)O; AEF = NCCOc1ccc(C[C@H](N)C(=O)O)cc1; X1 = O=C(Cc1ccc(CN[*:1])cc1)[*:2]; 3Pal = N[C@@H](Cc1cccnc1)C(=O)O; αMeL = CC(C)C[C@](C)(N)C(=O)O; β3hL = CC(C)C[C@H](N)CC(=O)O; Iso‑Dab = not defined here; Dab = NCC[C@H](N)C(=O)O

Assays:
[1] = target: IL-23 mediated STAT3 signalling (Homo sapiens, UniProt Q5VWK5); test: Functional inhibition of IL-23 mediated STAT3 signalling (phospho-STAT3 Tyr705 MSD, DB cells); assay type: cell-based
Experimental: The ability of compounds to inhibit IL-23 mediated signalling was determined in the human-derived DB cell line (CRL-2289) (hereafter referred to as DB cells), which endogenously expresses the human IL-23R and human IL-12R β1 subunits. Upon binding of IL-23, the IL-23R forms a heterodimer signalling complex together with IL-12R β1, which through the JAK2/STAT3 pathway promotes phosphorylation of STAT3 to form phospho-STAT3. In the assay, the functional antagonism of IL-23 mediated phospho-STAT3 formation in DB cells by the compound is quantified using reagents capable of measuring the phosphorylation state of Tyr705 of STAT3 in the form of a phospho-STAT3 (Tyr705) MSD (Meso Scale Discovery) kit.
[…]. For compounds tested in this assay, the response was normalized relative to control values to calculate the IC50 and maximal inhibitory response from a concentration response curve of the compound in presence of a fixed concentration of human IL-23.
The assay procedure was as follows. DB cells were maintained in growth medium consisting of RPMI-1640 [Invitrogen 61870-010] supplemented with 10% V/V Foetal Bovine Serum (FBS) [(heat inactivated), Invitrogen 10270-106], and 1% V/V Penicillin-Streptomycin (Pen-Strep) Solution [Invitrogen 15140]. On the day of assay, cells were resuspended in Assay buffer consisting of RPMI-1640 [Invitrogen 61870-010] supplemented with 0.1 % w/V BSA [Sigma-Aldrich A9430] to a density of 7.5x10^6 cells/mL. Compounds to be tested for inhibition of hIL-23 mediated signalling were serially diluted in Assay buffer to 3X the final concentration. A solution of hIL-23 corresponding to 3X the EC80 of hIL-23 (1.7 nM) was also prepared in Assay buffer. To initiate the assay, 20 µL of DB cell suspension (corresponding to 150.000 cells/well) was added to the wells of a 96-well V-bottom Polypropylene plate [Corning 3363] followed by addition of 3X 20 µL of the diluted test compounds to separate wells. Following preincubation of the DB cells with inhibitor for 15 min in a cell incubator (37 °C, 5% CO2), 20 µL of the prepared 3X the EC80 of hIL-23 solution was added to each well and incubated for 90 min in a cell incubator (37 °C, 5% CO2). For some wells buffer only or IL-23 only corresponding to the EC80 was added to obtain readouts needed for normalization. To terminate the assay, the plate was spun at 1000 G for 5 min to pellet cells, the supernatant removed using an 8-channel manual pipette, and then added 50 µL/well Complete Lysis Buffer from the MSD STAT3 kit (Cat# K150SVD, Mesoscale) to the cell pellet. To completely lyse cells to release phospho-STAT3 for detection, the plate was shaken for 10 min at room temperature (500 rpm) sealed with aluminium foil and placed at -80 °C for a minimum of 15 min. Detection of the phospho-STAT3 level in the cell lysate from the individual wells was determined using the MSD STAT3 kit (Cat# K150SVD, Mesoscale) and read on a Meso QuickPlex SQ 120 plate reader (Mesoscale).
For data analysis raw data counts from the Meso QuickPlex SQ 120 plate reader were normalized relative to the response by the EC80 of hIL-23 alone (no compound added) and the buffer level. Compound potency (IC50) and maximal inhibitory response (% inhibition) were estimated by computer-aided curve fitting using a 4-parameter logistic (4PL) non-linear model. […]. Typically compounds with a low IC50 are desired. Typically compounds capable of completely inhibiting the IL23-induced response are desired. […]. Table 3-2: hIL-23 (pSTAT3) antagonist IC50 and % inhibition data

[2] = target: T1, human IL-23R (Homo sapiens, UniProt Q5VWK5); test: biochemical
T1 sequence (Q5VWK5 22-629): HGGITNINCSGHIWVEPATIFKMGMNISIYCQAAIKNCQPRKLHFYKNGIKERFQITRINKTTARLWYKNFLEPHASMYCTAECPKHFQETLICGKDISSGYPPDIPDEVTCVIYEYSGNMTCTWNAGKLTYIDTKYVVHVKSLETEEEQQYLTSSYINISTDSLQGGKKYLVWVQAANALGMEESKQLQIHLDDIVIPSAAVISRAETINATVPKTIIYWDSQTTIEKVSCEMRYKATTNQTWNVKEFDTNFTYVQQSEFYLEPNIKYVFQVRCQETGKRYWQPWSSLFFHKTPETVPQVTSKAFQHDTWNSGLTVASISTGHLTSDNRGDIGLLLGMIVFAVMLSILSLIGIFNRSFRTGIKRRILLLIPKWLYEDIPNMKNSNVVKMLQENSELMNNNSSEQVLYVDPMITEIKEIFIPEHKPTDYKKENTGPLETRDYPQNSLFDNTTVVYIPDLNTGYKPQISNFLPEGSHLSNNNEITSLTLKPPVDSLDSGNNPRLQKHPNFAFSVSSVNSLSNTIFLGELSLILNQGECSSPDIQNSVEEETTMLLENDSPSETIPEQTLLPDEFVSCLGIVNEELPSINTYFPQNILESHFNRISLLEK
Outline: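 Membranes from HEK293 cells stably expressing Nluc-tagged human IL-23R were incubated 2 h at room temperature with test compound and a fluorophore-labelled tracer. After substrate addition, loss of BRET (TAMRA over luciferase emission) reported tracer displacement. A 4PL fit gave IC50 values.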

[3] = target: T2, Nluc-IL23R fusion protein (human, UniProt Q5VWK5 22-629); test: BRET competition vs TAMRA-labelled peptide, Nluc-IL23R membranes
T2 construct: range 22-629; expressed with a secretion signal in HEK293 cells; used as crude membrane preparation; also called hIL-23R; human IL-23R; not shown: Nanoluc protein from the expression plasmid N1371 (Promega), N-terminal of IL-23R
T2 sequence (looked up): T1 sequence (Q5VWK5 22-629)

[4] = target: T2, Nluc-IL23R fusion protein; test: as above; remark: listed apart in the source
[5] = target: T3, human IL-23R endogenously expressed on DB cells (human, UniProt Q5VWK5 24-629); test: cell-based or functional assay
T3 sequence (looked up): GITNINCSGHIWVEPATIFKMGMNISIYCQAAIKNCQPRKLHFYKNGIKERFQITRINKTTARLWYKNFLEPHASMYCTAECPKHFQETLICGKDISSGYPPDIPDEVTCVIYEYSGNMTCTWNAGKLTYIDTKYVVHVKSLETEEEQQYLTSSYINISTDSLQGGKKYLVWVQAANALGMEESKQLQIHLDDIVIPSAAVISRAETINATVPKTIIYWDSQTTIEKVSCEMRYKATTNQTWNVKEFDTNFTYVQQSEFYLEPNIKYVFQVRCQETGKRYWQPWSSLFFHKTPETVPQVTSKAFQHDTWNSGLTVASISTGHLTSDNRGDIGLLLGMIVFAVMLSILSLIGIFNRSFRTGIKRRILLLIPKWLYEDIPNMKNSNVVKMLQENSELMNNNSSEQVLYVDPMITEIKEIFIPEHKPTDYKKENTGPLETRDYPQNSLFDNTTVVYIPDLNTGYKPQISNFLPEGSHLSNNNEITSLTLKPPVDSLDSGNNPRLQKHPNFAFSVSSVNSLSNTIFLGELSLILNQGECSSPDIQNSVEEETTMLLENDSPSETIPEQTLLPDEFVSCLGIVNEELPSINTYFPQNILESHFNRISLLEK

[6] = target: T2, Nluc-IL23R fusion protein; test: BRET competition vs TAMRA-labelled peptide, Nluc-IL23R membranes; remark: listed apart in the source

IC50 [3]: 87 nM
IC50 [4]: 87 nM
hIL-23 (pSTAT3) antagonist IC50 [5]: 370 nM
B1: Ref 17 (peptide)
peptide: Ac-DESCWQCW[2Nal]LKR-NH2
modifications: lactam 2-11; bridge 4-7; not fully specified (bridges); printed as [Ac]-DE(1c)SC(2a)WQC(2a)W[2-Nal]LK(1c)R-[NH2]

hIL-23 (pSTAT3) antagonist % inhibition [5]: 98%
hIL-23 (pSTAT3) antagonist IC50 [5]: 42 nM
% displacement (hIL-23R binding) [6]: 105%
Molecule: [4‑Aminomethyl‑phenylacetyl]SEW[Q(pyrrolidin)″][Dab][AEF][2Nal][αMeL]E[Dab]-NH2 (lactam N-10, 3-6) [Ref 146]

IC50 [3]: 180 nM
% displacement (hIL-23R binding) [4]: 100%
IC50 [4]: 180 nM
hIL-23 (pSTAT3) antagonist % inhibition [5]: 87%
hIL-23 (pSTAT3) antagonist IC50 [5]: 850 nM
Molecule: H-DESCWQCWWLKR-NH2 (lactam 2-11; bridge 4-7; not fully specified (bridges)) [Ref 4]

IC50 [3]: 3.5 nM
% displacement (hIL-23R binding) [4]: 103%
IC50 [4]: 3.5 nM
hIL-23 (pSTAT3) antagonist % inhibition [5]: 97%
hIL-23 (pSTAT3) antagonist IC50 [5]: 18 nM
B4: Ref 18 (peptide)
peptide: Ac-KSCWQCW[2Nal]LER-NH2
modifications: lactam 1-10; bridge 3-6; not fully specified (bridges); printed as [Ac]-K(1c)SC(2a)WQC(2a)W[2-Nal]LE(1c)R-[NH2]

Second part, the molecule before the results:

Molecule: CC(C)C[C@@H](CC(N)=O)NC(=O)[C@H](Cc1cccnc1)NC(=O)[C@H](CCN)NC(=O)[C@@H]1CCC(=O)NCc2ccc(cc2)CC(=O)N[C@@H](CO)C(=O)N[C@H]2CCC(=O)NCC[C@H](NC(=O)[C@H](CCC(N)=O)NC(=O)[C@H](Cc3c[nH]c4ccccc34)NC2=O)C(=O)N[C@@H](Cc2ccc(OCCN)cc2)C(=O)N[C@@H](Cc2ccc3ccccc3c2)C(=O)N[C@@](C)(CC(C)C)C(=O)N1 [Compound 11, [4-Aminomethyl-phenylacetyl](1c)*SE(2c)WQ[Dab](2c)[Y(2-aminoethoxy)][2-Nal][2-Me-Leu]E(1c)[Dab][3-(3-Pyridyl)-Ala][beta-hLeu]-[NH2]] ([X1]SEWQ[Dab][AEF][2Nal][αMeL]E[Dab][3Pal][β3hL]-NH2; lactam 3-6, N-10)
IC50 ([1]; Example 2 (Tables 2-1 to 2-4), read-out: IC50 (pSTAT3)): 0.68 nM
% displacement (hIL-23R binding) [2]: 103%

Molecule: CC(C)C[C@]1(C)NC(=O)[C@H](Cc2ccc3ccccc3c2)NC(=O)[C@H](Cc2ccc(OCCN)cc2)NC(=O)[C@@H]2CCNC(=O)CC[C@H](NC(=O)[C@H](CO)NC(=O)Cc3ccc(cc3)CNC(=O)CC[C@@H](C(=O)NCC[C@H](N)C(=O)N[C@@](C)(Cc3cccnc3)C(N)=O)NC1=O)C(=O)N[C@@H](Cc1c[nH]c3ccccc13)C(=O)N[C@@H](CCC(N)=O)C(=O)N2 [Compound 15, [4-Aminomethyl-phenylacetyl](1c)*SE(2c)WQ[Dab](2c)[Y(2-aminoethoxy)][2-Nal][2-Me-Leu]E(1c)[Iso-Dab][2-Me-3-(3-Pyridyl)-Ala]-[NH2]]
IC50 ([1]; Table 3-2, EC80 of hIL-23, read-out: hIL-23 (pSTAT3) antagonist IC50): 12 nM
% displacement (hIL-23R binding) [2]: 96%
IC50 [2]: 0.45 nM

B2: Compound 15 (peptide)
peptide: [4‑Aminomethyl‑phenylacetyl]SEWQ[Dab][AEF][2Nal][αMeL]E[Iso‑Dab][αMeAla(3-pyridyl)]-NH2
modifications: lactam N-10, 3-6; reading uncertain; also: iso-Dab11 joined via side-chain amine
hIL-23 (pSTAT3) antagonist % inhibition [5]: 97%
hIL-23 (pSTAT3) antagonist IC50 [5]: 12 nM
% displacement (hIL-23R binding) [6]: 96%

B3: Compound 20 (peptide)
peptide: [4‑Aminomethyl‑phenylacetyl]AEWQ[Dab][AEF][2Nal][αMeL]E[Dab][3Pal]-NHMe
modifications: lactam N-10, 3-6
SMILES: CNC(=O)[C@H](Cc1cccnc1)NC(=O)[C@H](CCN)NC(=O)[C@@H]1CCC(=O)NCc2ccc(cc2)CC(=O)N[C@@H](C)C(=O)N[C@H]2CCC(=O)NCC[C@H](NC(=O)[C@H](CCC(N)=O)NC(=O)[C@H](Cc3c[nH]c4ccccc34)NC2=O)C(=O)N[C@@H](Cc2ccc(OCCN)cc2)C(=O)N[C@@H](Cc2ccc3ccccc3c2)C(=O)N[C@@](C)(CC(C)C)C(=O)N1
hIL-23 (pSTAT3) antagonist % inhibition [5]: 101%
hIL-23 (pSTAT3) antagonist IC50 [5]: 0.026 nM
% displacement (hIL-23R binding) [6]: 97%

Molecule: [4‑Aminomethyl‑phenylacetyl]SEWQ[Dab][AEF][2Nal][αMeL]E[Dab][H(Me)]-NH2 (lactam N-10, 3-6) [Compound 14]
hIL-23 (pSTAT3) antagonist % inhibition [5]: 99%
hIL-23 (pSTAT3) antagonist IC50 [5]: 7.2 nM
% displacement (hIL-23R binding) [6]: 102%
IC50 [6]: 0.11 nM
